Measured values published in publication PMC8863163 (Research Square, 2022).

Target: T1, SARS-CoV-2 nsp12 (RNA-dependent RNA polymerase with N-terminal NiRAN domain) (SARS-CoV-2, UniProt P0DTD1)
T1 construct: also called RdRp; WT nsp12
Assay: cryo-EM structure
Details: both partners purified

B1: SARS-CoV-2 nsp9 with native N-terminus (natural protein)
chain: NNELSPVALRQMSCAAGTTQTACTDDNALAYYNTTKGGRFVLALLSDLQDLKWARFPKSDGTGTIYTELEPPCRFVTDTPKGPKVKYLYFIKGLNNLNRGMVLGSLAATVRLQ
notes: also called native nsp9
B1: binds.
